Experimental data from patent publication US20180222961A1 (IMMATICS BIOTECHNOLOGIES, published 2018).

Target: T1, human recombinant HLA-B*08:01 and b2m (human)
T1 construct: expressed in E. coli and purified; stability of the peptide-MHC complex read as b2m associated with the heavy chain over time at 37 C
Experiment: pMHC dissociation assay at 37 C; mean half-life grade
Method: Peptide-MHC stability assays for HLA-B*08:01 peptides were performed. The data were obtained using a proximity based, homogenous, real-time assay in order to measure the dissociation of peptides from HLA class I molecules. First, human recombinant HLA-B*08:01 and b2m were expressed in E. coli and purified in a series of liquid chromatography based steps (Ferre et al., 2003; Ostergaard et al., 2001). Then, the stability of a peptide-MHC complex (pMHC) was determined by measuring the amount of b2m associated with the MHC heavy chain over time at 37° C. (Harndahl et al., 2012). The stability of each pMHC, expressed as the half life of b2m associated with the respective heavy chain, was calculated by fitting the data to a one-phase dissociation equation.

Row | Binder | mean half-life (T1/2) of peptide-MHC complex [h]
1 | VLKHKLDEL | 2 to 4
2 | TSHERLTTL | 4 to 6
3 | SLRLKNVQL | 2 to 4
4 | MLRKIAVAA | 2 to 4
5 | TPKLRETSI | 4 to 6
6 | SIKTKSAEM | 6 to 10
7 | LPRLKAFMI | 4 to 6
8 | MGSARVAEL | 4 to 6
9 | EAMKRLSYI | 2 to 4
10 | KLKERNREL | 6 to 10
11 | NAMLRKVAV | 2 to 4
12 | LPKLAGLL | 2 to 4
13 | YPKARLAF | 6 to 10
14 | ALKTTTTAL | 2 to 4
15 | QGLLRPVF | 4 to 6
16 | QAKTHSTL | 2 to 4
17 | HLLLKVLAF | 4 to 6
18 | MAAVKQAL | 4 to 6
19 | DVKKKIKEV | 2 to 4
20 | YLLEKSRVI | 4 to 6
21 | HVKEKFLL | 4 to 6
22 | TSMPRSSAM | 6 to 10
23 | MYKMKKPI | 2 to 4
24 | VLLPRLVSC | 2 to 4
25 | DMKYKNRV | 2 to 4
26 | FAFRKEAL | 4 to 6

Target: T2, HLA-A*24:02 (human)
T2 construct: also called peptide-receptive MHC molecules
Experiment: UV-exchange b2m ELISA; exchange-yield grade
Method in brief: (§1)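 Peptide–MHC complexes formed by UV-ligand exchange, in which a UV-cleavable peptide is replaced by the test peptide. Exchange yield measured by ELISA detecting β2m of stabilised complexes captured on streptavidin, against refolded HLA-A*02:01/MLA-001 monomer standards (15-500 ng/ml); samples diluted 100-fold.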

Row | Binder | peptide exchange yield [%]
27 | SYSDLHYGF | > 75
28 | RYLAVVHAVF | > 75
29 | VYTFLSSTL | > 75
30 | KYVAELSLL | > 75
31 | VYTPTLGTL | > 75
32 | FYFPTPTVL | > 75
33 | RFTTMLSTF | > 75
34 | SFAPRSAVF | > 75
35 | VFVSFSSLF | 50 to 75
36 | KYEKIFEML | > 75
37 | RYSDSVGRVSF | > 75
38 | LYQPRASEM | 50 to 75
39 | KYPVHIYRL | > 75
40 | SYFRGFTLI | > 75
41 | TAYMVSVAAF | 50 to 75
42 | RYGPVFTV | > 75
43 | IYSPQFSRL | > 75
44 | VYHDDKQPTF | > 75
45 | SYNEHWNYL | > 75
46 | KYVKVFHQF | > 75
47 | VYNHTTRPL | > 75

Target: T3, HLA-A*01:01 (human)
T3 construct: also called peptide-receptive MHC molecules
Experiment: UV-exchange b2m ELISA; exchange-yield grade
Method in brief: as §1

Row | Binder | peptide exchange yield [%]
48 | TVTGAEQIQY | 20 to 50
49 | QLDSNRLTY | 50 to 75
50 | RWEKTDLTY | 20 to 50
51 | NVTMKVVSVLY | 50 to 75
52 | VMEQSAGIMY | 20 to 50
53 | LLDEGAMLLY | > 75
54 | VLLDEGAMLLY | 20 to 50
55 | ETIRSVGYY | 50 to 75
56 | SPVTSVHGGTY | 20 to 50
57 | FVDNQYWRY | 50 to 75
58 | DMDEEIEAEY | 20 to 50
